Measured values from a protein production outcome set (Wang et al. 2014).

Test: label from the status in PepcDB records

Sequence | protein production
MDEISTGMLLVILAVLLFLSAYFSGSETGMMSINRYRLRHLVQNNHPGAKRVQYLLDRPDRLIGLILIGNNLVNIGASAIATILCLRWFGDAGIVIATFGLTLIILIFSEVTPKTIAALHPERISFPSSLILMPLLKVMYPIVIGMNFITNSFMRLLGVNPKQSQMADALSSDELRTVVNEAGNLIPTSHQEMLVSILDLEKVTVEDVMVPRNEIVGIDISDDWKSIVKQLSNGQHTRVLLYRNEIDDAIGFLHARDIMRLMSKNQFTADKSILVRAARDSYFIPEGTPLNVQLLKFQRRKERIGLVVDEYGDIQGLVTLEDILEEIVGDFTTSMAPAPSESVTLETDGSFLVDGSANLRELNKEMNWDFPTDGPKTLSGLIIEQFGDIPDARLSLRLGGYPVELVEIGDTMIKQIRVFPELYQKPDNQTND | failed
MTFSAFFQTIDDYSFRPMIPSFIRLLRFTGLFIAIFAPALYIAMISFHYEVIPLKLLLTIGESRAKIPFPPILEALLMELVLEMLREAAVRLPGPVGQTIGVVGGIVIGQAAVQAGIVSNVMVIVVSITAVASFIIPNLEMSAGIRLLRFPMMIIASLFGVIGIMVGMAIIIIHILSMESLGVPYGSPFSPLFASDLKDILIRLPWKIMKKRPLSLNLKQENRQSDIEGTEEDK | failed
MKFDVIIIGSGLAGLTAGIRLAEAGKSCAIISNGQSALHFSSGSLDLLTHLPDGTPVSHPKQALSTLAQQAPEHPYSRIGEANVTQLIEQAQTLLSTTRNLDYKGNGDENHYRITPVGRSRMSWMSPQRVPTYSVNQPFPWKKIAVVGIEGFLDFQPQFASSTLNEQGIEAIPYHIHLPLLDRLRDNPSEFRAINIARYLDKPENTQALAEELIKHIDNSVEAIVLPACIGLDEEAPVNLLQECVGKPICLLPTLPPSLLGIRLHQALKLRFQQAGGLIMPGDRAEEADLVGNKVVGIHTRNHTDIPIRSEHVVLATGSFFNNGLIAEFDRIYEPLMELDLLESLPRNEWTQVNVFAKQPYMRFGVNTDSQLRPLKYGEALDNVYAVGALLGGFDPLNEGCGAGVSMISALYAAQQILQSDKSQHTTSAAVEAVL | not failed
EDPFQPEIKVRCVCGNSLETDSMIQVIWDELTAFIPCEDPRCHVWQHVGCVILPDKPMDGNPPLPESFYCEICRLT | not failed
MKVLVIGNGGREHALAWKAAQSPLVETVFVAPGNAGTALEPALQNVAIGVTDIPALLDFAQNEKIDLTIVGPEAPLVKGVVDTFRAAGLKIFGPTAGAAQLEGSKAFTKDFLARHKIPTAEYQNFTEVEPALAYLREKGAPIVIKADGLAAGKGVIVAMTLEEAEAAVHDMLAGNAFGDAGHRIVIEEFLDGEEASFIVMVDGEHVLPMATSQDHKRVGDKDTGPNTGGMGAYSPAPVVTDDVHQRTMERIIWPTVKGMAAEGNTYTGFLYAGLMIDKQGNPKVIEFNCRFGDPETQPIMLRMKSDLVELCLAACESKLDEKTSEWDERASLGVVMAAGGYPGDYRTGDVIHGLPLEEVAGGKVFHAGTKLADDEQVVTNGGRVLCVTALGHTVAEAQKRAYALMTDIHWDDCFCRKDIGWRAIEREQN | failed
MASVKLPWDLEEEILSRLPPRSLVRFRTVCKHWNGLFSDKRFVKKHLVRARPQFIFLTESKKMYSIEIDLGGTIEVREVPYDFHCQPMKKNFTTIMACDGLLFRDFWKQGVAVWNPWLRQVGWIEYEDKGFRFCGVGYDSCKPDKCYKILGYFNCTRRLSDSLQEGYYQAAIYECASQAFKFIDTPNPFNLWPNKDPLSVNGNLYWLAHNHPETLEYFIETFDFSMEIFKPFCLLPCRKDFGSNELVLAVFKEDRFSLLKQCFETTKIEIWVTKMKIDREEEVVWIKFMTLPTTNLPNLDDTYCCSSYFIFDKTIIMCCGDYKTGATCIYMVRGDMFKKIQINSGIFQFSYCVYLPNLISVPFESHQV | failed
MDHVHKSTTTDEDERNSGRAIDRHNPIIKDGRRSFADDFIKLPTSAEDGEMSNKKLEIYKGRRSITGRRSTGGGGGGGAAALLKLITNDIGLARKSFSCVARPACDLIKTPVGSTRYLLGSDPDSITGSVDQDPAKTVEAEAPAGEDKTLTEKKTTCGDTDQVSCFVVSIMSGINVNKW | failed
MENVITYNNDKGLLAYIQFLASSAQKIGDGNTDRVFDFEDALDQTQMAQLAVDELKKIPEVNALFSERWLPAPFNLDDLAKLPEGTLGHVYAREMKARGFDPYFYKKVPVVDDISYLKMLWRSTHDIYHVVAGFDTNVFGEIGLQAFFLAQTPIPISVMLLSFGMVMISLYQPTNFKALMTEISRGYRVGSHTPGKLIAQKWDQLWDVQVSEIRERLGVNSIL | not failed
MSDVTQQKKRKRSKGEVNPSKPTVDEEITDPSSNEDEQLEVSDEEDALESEEEFEGENPADKRRRLAKQYLENLKSEANDILTDNRNAEEKDLNNLKERTIDEYNNFDAGDLDKDIIASRLKEDVAEQQGRVFRYFGDKLLISEAKQSFTRVGENNLTCISCFQPVLNKYTFEESSNGDKNKGRLFAYTVSKDLQLTKYDITDFSKRPKKLKYAKGGAKYIPTSKHEYENTTEGHYDEILTVAASPDGKYVVTGGRDRKLIVWSTESLSPVKVIPTKDRRGEVLSLAFRKNSDQLYASCADFKIRTYSINQFSQLEILYGHHDIVEDISALAMERCVTVGARDRTAMLWKIPDETRLTFRGGDEPQKLLRRWMKENAKEGEDGEVKYPDESEAPLFFCEGSIDVVSMVDDFHFITGSDNGNICLWSLAKKKPIFTERIAHGILPEPSFNDISGETDEELRKRQLQGKKLLQPFWITSLYAIPYSNVFISGSWSGSLKVWKISDNLRSFELLGELSGAKGVVTKIQVVESGKHGKEKFRILASIAKEHRLGRWIANVSGARNGIYSAVIDQTGF | failed
MPSRQLQILIRKTLPLVPDHVLIIGESGIAFSKATNLLGQEFEHILFDGRNGIHLEALAIAAGTLKMGGTLCLVLSDWENLSQQPDQDSLRWNGNQSAIATPNFIYHFKQCIERYHFPILREESAVEFPTVFYSNEHHKNATLAQQQIIENILQAEQDIYFLTAKRGRGKSALLGMLANQIQAPVYLTAPNKSAVHSVIEFSEGDIEFIAPDELALTLQTEPEFSQSAWLLVDEAAMIPLPLLQEYSRYFQHIVFSTTIHSYEGTGRGFELKFKRKIHRTFQHFELKQPLRWQENDPLEHFIDDLLLLNAEDDFQHFDYSNITYNIEENAKNLSFPCLRGKVPEGPKGGFRYS | failed
MRLAEGIVIEKEKTFGTLKFSALRREVKIVDDEGNVTEQVKERTFDLKKEQGRMIQVSIPASAGVKNFDYNAEVEIINPIADTVATATFQGADVDWYIKAEDIVLKRPAQNQQADQKQNHDKKLEHHHHHH | failed
MKRSEKKSMSSALKNGIMERTQPEKVVQMQGTADLSTSKLGTKKYWDELYALELENFRRNPQDTGDCWFSDSDAEQKMIDFLVDNIGAYRISENASVVDLGTGNGHMLFELHQTEFQGKLVGIDYSEESVKLASNIAEATGVDNFISFQQADIFSGDWKPGKYDIVLDKGTLDAISLSGMKINGKLDVVDVYAGVVERILKKDGIFLITSCNFTQDELVKIIETDNLKMWKTIKYPVFQFGGVQGATICSVAFVKQN | failed
MGDKEESKKFSANLNGTEIAITYVYKGDKVLKQSSETKIQFASIGATTKEDAAKTLEPLSAKYKNIAGVEEKLTYTDTYAQENVTIDMEKVDFKALQGISGINVSAEDAKKGITMAQMELVMKAAGFKEVKLEHHHHHH | not failed
MQLQVMNSPFNQEQAELLNRLLPTLTESQKIWLSGYLSAQSVSAQEAAGTPAAAVSAEAPAPAVSKEVTVLYGSQTGNAQGLAENAGKQLEQSGFQVTVSSMSDFKPNQLKKVTNLLIVVSTHGEGEPPDNALSFHEFLHGRRAPKLEDLRFSVLALGDSSYEFFCQTGKEFDQRLEELGGKRISPRVDCDLDYDEPAAEWLEGVLKGLNEAGGGSAAPAPAAASQTGESSYSRTNPFRAEVLENLNLNGRGSNKETRHVELSLEGSGLTYEPGDSLGVYPENDPELVELLLKEMNWDPEEIVTLNKQGDVRPLKEALISHYEITVLTKPLLEQAAQLTGNDELRELLAPGNEENVKAYIEGRDLLDLVRDYGPFSVSAQEFVSILRKMPARLYSIASSLSANPDEVHLTIGAVRYDAHGRERKGVCSILCAERLQPGDTLPVYVQHNQNFKLPKDPETPIIMVGPGTGVAPFRSFMQEREETGAEGKAWMFFGDQHFVTDFLYQTEWQNWLKDGVLTKMDVAFSRDTEEKVYVQHRMLEHSAELFEWLQEGAAVYICGDEKHMAHDVHNTLLEIIEKEGNMSREEAEAYLADMQQQKRYQRDVY | failed
EKDTIAAEHKQEASVLLNLHRNKINYLIGETMARMTSLSIAIDRPVDIKKMQSILEKTFDSEPRFSGLYFLNAKGDVTASTTELKTKVNLADRSFFIKAKETKKTVISDSYSSRITGQPIFTICVPVLDSKRNVTDYLVAAIQIDYLKNLINLLSPDVYIEVVNQDGKMIFASGQASHAEDQKPVSGYLDDISWNMKVYPNPVTIEELSKS | failed
METNKYLELIKQELANMPDFVKEYNLGTSHSLTTTYQYLTEIRRFFDWLRQNNIASVSSNKEIEVTTLENLQRNDVMLYIHHLKHTKNQQGRLNSPTTINRSINALRSLYKFLTITSDNNHGEPYFDRNVMLKINSLNDTKTLNYRAHVLESHMYMGDLKYQFLDFIENEYIHKCNKQSLPAFKKNHERDMAIIALILGTGIRVSECVGVNMRNINLKDAMLDVTRKGGQKDSVPIAEWTIPYLKKYREIRADHYHAEKEDIAFFLTRWHGKTKRITTNAVEKMVNKYSAAFGKPLTPHKLRHTLASELYEVTKDQVLVAQQLGQKGTTATDLYTHVDQKKQKAALNKINRYKSSD | failed
MFVLNIFSTTHKQRGLNRASCPPLGNYSNNHTLAYRVKCISEETRDSNSLVSSLNRKLWKTSVAGSDIPMIYSPFLEDMQNTLFASFETVEDYPLSEFLASAQSSKKPARIESWCYQCPKFRKIRLTYLDAGVAAQVFNAVWYPISSLELPILGVDFLSFGGKNVLCVMDFQPLMNDQYYLDKYIQPLHPIRERYADLAGRMSSRFYDENRFFSKELLFGRFDSTKPIYERLFPAFREYLDLYITLAKQTVEDDKSRSIIWQLQCEYDRYSAEKDPAMSLFRSYFGSTWAHRFVYEFLFENSRYESSLDNKT | not failed
MQLGFAMLADPILLITILLGFAMAWAIGANDAANSMSTAVGAGAITPRQAVIIAGVLEFMGAYFFGKTVTETIRKGIIDPSKITDPNVLIFGSIAALIGATIWLVIATKYGLPVSTTHSIIGGIVGYGIVYGGMSIVNWDKMIKVVLSWILSPIVGAIFAYLVFRALSKTVLQSKDPVKSAKRWSPFWIGLAFVVIGTMFYIKVLHGNSLLEGFLKYGMPAGILTFIVVSLILEKRFPATDPYLGAERVFRRVQVITSAYVALAHGANDVANAIGPVAAVYTVAMFGLAGAKVPVPRWILALGGLGIAIGVATYGYKVMETVGKKITELTNTRGFTIDFSAATVVLIASWLGMPISTTHTVVGAVIGVGLARGIKAINKDIVKDIIISWFVTVPAAGVIAGIIFKALMMLMG | failed
VDMLLVGAGIMSATLAVLLKELDPNLKMEVVELQESGAIESSNPWNNAGTGHAGLCELNYTPQSADGSIDIKKAVGINTMFEVSKQFWSHLVAKGTFGSPKTFINPVPHLSFVRGSEGIAYLKKRFESLTKHHAFETMVYSEDKATLAEWMPLMMPGRPADEAIAATRVEGGTDVNFGALTNQLLQHLAQQPGAQIRYNQKVTHLRRADNGWRVTVKDTRNGGDREIQARFVFLGAGGGALPLLQLSGIPEGKGFGGFPVSGQWLRCDNPEIVKQHQAKVYSQAEVGSPPMSVPHLDTRVVDGKKSLLFGPYAGFSTKFLRHGSFLDLPLSVRPGNILPMLSVARDNMDLTRYLIGQVMQSPEQRLEALRKFYPEARAEDWRLEVAGQRVQIIKKDPKKGGILQFGTELVAAHDGSIAALLGASPGASVTVSIMLGLIERCFPEQARSPEWSAKLKEIFPAREKELESDAELYRSVSSRCSEVLELTAKNDVQAPVNAE | failed
